Laboratory results as given in US20180088121A1.
Where no end group is shown, it is not given here.

Biological target: TCRs of APC frameshift neopeptide specific T cell populations
Experiment: flow cytometry, double staining with PE and APC labelled neopeptide-MHC multimers of T cells after 2 weeks of in vitro expansion; first panel from the left

number in the upper right quadrant (MHC-Multimer PE and APC double positive), no percent sign printed: 0.31
Binder: LILYYILPRKV (peptide-MHC, part only; not given: HLA-A2 heavy chain, construct, human, part only, also: bound in HLA-A2 MHC multimer, PE and APC labelled) [A2/…]
